Like-named read-outs stand apart in the source and are kept apart here.
T1: GDF8 (UniProt O14793 267-375)
T1 construct: also called myostatin; Growth and Differentiation Factor-8
T1 sequence (looked up): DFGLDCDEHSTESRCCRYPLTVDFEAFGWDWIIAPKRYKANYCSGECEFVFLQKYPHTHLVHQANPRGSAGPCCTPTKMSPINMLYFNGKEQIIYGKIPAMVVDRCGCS

T2: GDF-11 (UniProt O95390 299-407)
T2 sequence (looked up): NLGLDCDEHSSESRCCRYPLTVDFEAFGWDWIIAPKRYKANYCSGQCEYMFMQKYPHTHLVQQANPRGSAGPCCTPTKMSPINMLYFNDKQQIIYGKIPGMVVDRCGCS

T3: Activin A (UniProt P08476 311-426)
T3 sequence (looked up): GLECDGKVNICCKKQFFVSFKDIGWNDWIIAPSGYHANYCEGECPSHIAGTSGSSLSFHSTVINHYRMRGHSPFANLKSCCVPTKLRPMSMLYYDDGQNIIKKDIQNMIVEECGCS

B1: ActRIIb-hFc (R64, 20-134) (Fc fusion)
chain: GRGEAETRECIYYNANWELERTNQSGLERCEGEQDKRLHCYASWRNSSGTIELVKKGCWLDDFNCYDRQECVATEENPQVYFCCCEGNFCNERFTHLPEAGGPEVTYEPPPTAPTGGGTHTCPPCPAPELLGGPSVFLFPPKPKDTLMISRTPEVTCVVVDVSHEDPEVKFNWYVDGVEVHNAKTKPREEQYNSTYRVVSVLTVLHQDWLNGKEYKCKVSNKALPVPIEKTISKAKGQPREPQVYTLPPSREEMTKNQVSLTCLVKGFYPSDIAVEWESNGQPENNYKTTPPVLDSDGSFFLYSKLTVDKSRWQQGNVFSCSVMHEALHNHYTQKSLSLSPGK
B2: ActRIIb-hFc (R64, 23-131) (Fc fusion)
chain: EAETRECIYYNANWELERTNQSGLERCEGEQDKRLHCYASWRNSSGTIELVKKGCWLDDFNCYDRQECVATEENPQVYFCCCEGNFCNERFTHLPEAGGPEVTYEPPPTGGGTHTCPPCPAPELLGGPSVFLFPPKPKDTLMISRTPEVTCVVVDVSHEDPEVKFNWYVDGVEVHNAKTKPREEQYNSTYRVVSVLTVLHQDWLNGKEYKCKVSNKALPVPIEKTISKAKGQPREPQVYTLPPSREEMTKNQVSLTCLVKGFYPSDIAVEWESNGQPENNYKTTPPVLDSDGSFFLYSKLTVDKSRWQQGNVFSCSVMHEALHNHYTQKSLSLSPGK
B3: ActRIIb-hFc (R64, 20-131) (Fc fusion)
chain: GRGEAETRECIYYNANWELERTNQSGLERCEGEQDKRLHCYASWRNSSGTIELVKKGCWLDDFNCYDRQECVATEENPQVYFCCCEGNFCNERFTHLPEAGGPEVTYEPPPTGGGTHTCPPCPAPELLGGPSVFLFPPKPKDTLMISRTPEVTCVVVDVSHEDPEVKFNWYVDGVEVHNAKTKPREEQYNSTYRVVSVLTVLHQDWLNGKEYKCKVSNKALPVPIEKTISKAKGQPREPQVYTLPPSREEMTKNQVSLTCLVKGFYPSDIAVEWESNGQPENNYKTTPPVLDSDGSFFLYSKLTVDKSRWQQGNVFSCSVMHEALHNHYTQKSLSLSPGK
B4: ActRIIb-hFc (R64, 21-131) (Fc fusion)
chain: RGEAETRECIYYNANWELERTNQSGLERCEGEQDKRLHCYASWRNSSGTIELVKKGCWLDDFNCYDRQECVATEENPQVYFCCCEGNFCNERFTHLPEAGGPEVTYEPPPTGGGTHTCPPCPAPELLGGPSVFLFPPKPKDTLMISRTPEVTCVVVDVSHEDPEVKFNWYVDGVEVHNAKTKPREEQYNSTYRVVSVLTVLHQDWLNGKEYKCKVSNKALPVPIEKTISKAKGQPREPQVYTLPPSREEMTKNQVSLTCLVKGFYPSDIAVEWESNGQPENNYKTTPPVLDSDGSFFLYSKLTVDKSRWQQGNVFSCSVMHEALHNHYTQKSLSLSPGK
B5: ActRIIb-hFc (R64, 22-131) (Fc fusion)
chain: GEAETRECIYYNANWELERTNQSGLERCEGEQDKRLHCYASWRNSSGTIELVKKGCWLDDFNCYDRQECVATEENPQVYFCCCEGNFCNERFTHLPEAGGPEVTYEPPPTGGGTHTCPPCPAPELLGGPSVFLFPPKPKDTLMISRTPEVTCVVVDVSHEDPEVKFNWYVDGVEVHNAKTKPREEQYNSTYRVVSVLTVLHQDWLNGKEYKCKVSNKALPVPIEKTISKAKGQPREPQVYTLPPSREEMTKNQVSLTCLVKGFYPSDIAVEWESNGQPENNYKTTPPVLDSDGSFFLYSKLTVDKSRWQQGNVFSCSVMHEALHNHYTQKSLSLSPGK
B6: ActRIIb-hFc (R64, 20-128) (Fc fusion)
chain: GRGEAETRECIYYNANWELERTNQSGLERCEGEQDKRLHCYASWRNSSGTIELVKKGCWLDDFNCYDRQECVATEENPQVYFCCCEGNFCNERFTHLPEAGGPEVTYEPGGGTHTCPPCPAPELLGGPSVFLFPPKPKDTLMISRTPEVTCVVVDVSHEDPEVKFNWYVDGVEVHNAKTKPREEQYNSTYRVVSVLTVLHQDWLNGKEYKCKVSNKALPVPIEKTISKAKGQPREPQVYTLPPSREEMTKNQVSLTCLVKGFYPSDIAVEWESNGQPENNYKTTPPVLDSDGSFFLYSKLTVDKSRWQQGNVFSCSVMHEALHNHYTQKSLSLSPGK
B7: ActRIIb-hFc (R64, 24-131) (Fc fusion)
chain: AETRECIYYNANWELERTNQSGLERCEGEQDKRLHCYASWRNSSGTIELVKKGCWLDDFNCYDRQECVATEENPQVYFCCCEGNFCNERFTHLPEAGGPEVTYEPPPTGGGTHTCPPCPAPELLGGPSVFLFPPKPKDTLMISRTPEVTCVVVDVSHEDPEVKFNWYVDGVEVHNAKTKPREEQYNSTYRVVSVLTVLHQDWLNGKEYKCKVSNKALPVPIEKTISKAKGQPREPQVYTLPPSREEMTKNQVSLTCLVKGFYPSDIAVEWESNGQPENNYKTTPPVLDSDGSFFLYSKLTVDKSRWQQGNVFSCSVMHEALHNHYTQKSLSLSPGK
B8: ActRIIb-hFc (R64, 20-132) (Fc fusion)
chain: GRGEAETRECIYYNANWELERTNQSGLERCEGEQDKRLHCYASWRNSSGTIELVKKGCWLDDFNCYDRQECVATEENPQVYFCCCEGNFCNERFTHLPEAGGPEVTYEPPPTAGGGTHTCPPCPAPELLGGPSVFLFPPKPKDTLMISRTPEVTCVVVDVSHEDPEVKFNWYVDGVEVHNAKTKPREEQYNSTYRVVSVLTVLHQDWLNGKEYKCKVSNKALPVPIEKTISKAKGQPREPQVYTLPPSREEMTKNQVSLTCLVKGFYPSDIAVEWESNGQPENNYKTTPPVLDSDGSFFLYSKLTVDKSRWQQGNVFSCSVMHEALHNHYTQKSLSLSPGK

What was measured:
GDF8 = molecular target: T1, GDF8; assay: BiaCore SPR; ActRIIB-Fc captured by anti-hFc antibody, ligand injected
Description: The ActRIIB-Fc variants or wild-type protein were captured onto the system using an anti-hFc antibody. Ligands were injected and flowed over the captured receptor proteins.

GDF-11 [1] = molecular target: T2, GDF-11; assay: cell-based or functional assay
Activin A [2] = molecular target: T3, Activin A; assay: cell-based or functional assay
GDF-11 [3] = molecular target: T2, GDF-11; assay: cell-based or functional assay; remark: listed apart in the source
Activin A [4] = molecular target: T3, Activin A; assay: cell-based or functional assay; remark: listed apart in the source

Row | Binder | kon (GDF8) | IC50 (ng/mL), A-204 reporter gene assay, conditioned media (GDF-11 [1]) | IC50 (ng/mL), A-204 reporter gene assay, conditioned media (Activin A [2]) | IC50 (ng/mL), A-204 reporter gene assay, conditioned media (GDF-11 [3]) | IC50 (ng/mL), A-204 reporter gene assay, conditioned media (Activin A [4])
1 | B1 | 369000 M⁻¹ s⁻¹ |  |  |  | 
2 | B2 |  | 60 ng/mL | 43 ng/mL |  | 
3 | B3 |  | 183 ng/mL | 201 ng/mL | 120 ng/mL | 44 ng/mL
4 | B4 |  | 121 ng/mL | 325 ng/mL |  | 
5 | B5 |  | 71 ng/mL | 100 ng/mL |  | 
6 | B6 |  |  |  | 130 ng/mL | 158 ng/mL
7 | B7 |  | 69 ng/mL | 105 ng/mL |  | 
8 | B8 |  |  |  | 87 ng/mL | 32 ng/mL

— patent US20220281951A1 (ACCELERON PHARMA, published 2022)
